Results on three molecules are retold here after paper PMC3825029 (Journal of immunology (Baltimore, Md. : 1950), 2013).

For assay [1], the target named is C3b. Nature of the assay: SPR.
The target of assay [2] is C3dg (UniProt P01024 955-1303). Nature of the assay: SPR.

The Kd is the equilibrium constant for the complex coming apart. A high value points to weaker binding.

C3dg, sequence (P01024 955-1303): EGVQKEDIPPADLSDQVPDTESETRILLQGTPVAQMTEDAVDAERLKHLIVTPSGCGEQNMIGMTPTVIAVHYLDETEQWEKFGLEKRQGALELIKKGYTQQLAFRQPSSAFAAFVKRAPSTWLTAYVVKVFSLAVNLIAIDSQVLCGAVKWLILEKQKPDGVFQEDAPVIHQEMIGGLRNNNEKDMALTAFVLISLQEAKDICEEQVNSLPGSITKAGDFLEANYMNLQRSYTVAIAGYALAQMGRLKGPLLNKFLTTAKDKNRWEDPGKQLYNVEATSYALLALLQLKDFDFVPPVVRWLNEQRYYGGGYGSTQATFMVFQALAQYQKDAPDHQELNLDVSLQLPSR

In turn, “factor H (from UniProt P08603 19-1231) (natural protein)” displayed a Kd in assay [1] of 1000 nM.
“mini-FH (from UniProt P08603 1-264; P08603 1107-1231) (designed binder)” gave a Kd in assay [1] of 1000 nM.

B1: FH19-20 (domain or fragment, human)
chain: GKCGPPPPIDNGDITSFPLSVYAPASSVEYQCQNLYQLEGNKRITCRNGQWSEPPKCLHPCVISREIMENYNIALRWTAKQKLYSRTGESVEFVCKRGYRLSSRSHTLRTTCWDGKLEYPTCAKR
For B1, in assay [2], the binding result is given as “binds”.
